Test results reported in US7803749B2, “Peptide inhibitors of MKK7 kinase binding to insulin binding proteins” (Xigen SA, priority 2002, dated 2010).
Entries after “also recorded” stand apart in the source; their conditions may differ. Residues, ends and D or L forms follow the SMILES beside them.

How the values were obtained:
[1] = target: T1, MKK7 binding to IB1 (SH3 domain) (Homo sapiens, UniProt Q9UQF2); assay: Pull-down of 35S-labelled MKK7 with GST-SH3 domain of IB1; details: FIG. 2
T1 construct: the SH3 domains of IB1 and IB2 were subcloned using PCR into the pGEX-4T1 vector in frame with the GST; made in house; host or cells: E. coli
T1 sequence (Q9UQF2 488-549 limits assumed): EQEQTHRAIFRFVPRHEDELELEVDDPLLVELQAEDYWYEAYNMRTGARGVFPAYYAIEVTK
Description: (§1) Effects of the αSH3 peptide on JNK biological activities were then studied. […] In the pull-down experiments, the SH3 domains of IB1 and IB2 were subcloned using PCR into the pGEX-4T1 vector in frame with the GST (Pharmacia). The recombinant proteins were produced in E. Coli. Purification was performed in native conditions using a glutathione-agarose column (Pharmacia). ^35S-labelled MKK7 was then used in classical pull-down experiments.

[2] = target: T2, MKK7 binding to IB2 (SH3 domain) (Homo sapiens, UniProt Q13387); assay: Pull-down of 35S-labelled MKK7 with GST-SH3 domain of IB2; details: FIG. 2
T2 construct: the SH3 domains of IB1 and IB2 were subcloned using PCR into the pGEX-4T1 vector in frame with the GST; made in house; host or cells: E. coli
T2 sequence (Q13387 604-665 limits assumed): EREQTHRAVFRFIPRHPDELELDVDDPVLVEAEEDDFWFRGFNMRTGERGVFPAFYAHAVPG
Description: as §1

[3] = tested on: developing rat cortical neurons; assay: Incubation of developing rat cortical neurons with peptide (necrotic bodies, neuron number); details: 1 μM, vs control neurons, FIGS. 4A-4F

Blocking of the binding of MKK7 to IB1 [1]	Blocking of the binding of MKK7 to IB2 [2]	Compound	Toxicity on developing neurons (appearance of residual necrotic bodies) [3]
efficiently blocks	efficiently blocks	αSH3: consensus αSH3 sequence SVSVGMPPSPRP, 12 aa	
		CSCC[C@H](NC(=O)CNC(=O)[C@@H](NC(=O)[C@H](CO)NC(=O)[C@@H](NC(=O)[C@H](CO)NC(=O)[C@H](CCCNC(=N)N)NC(=O)[C@H](CCCNC(=N)N)NC(=O)[C@H](CCCNC(=N)N)NC(=O)[C@H](CCC(N)=O)NC(=O)[C@H](CCCNC(=N)N)NC(=O)[C@H](CCCNC(=N)N)NC(=O)[C@H](CCCCN)NC(=O)[C@H](CCCCN)NC(=O)[C@@H](N)CCCNC(=N)N)C(C)C)C(C)C)C(=O)N1CCC[C@H]1C(=O)N1CCC[C@H]1C(=O)N[C@@H](CO)C(=O)N1CCC[C@H]1C(=O)N[C@@H](CCCNC(=N)N)C(=O)N1CCC[C@H]1C(=O)O [TAT-αSH3] (H-RKKRRQRRRSVSVGMPPSPRP-OH)	lacked residual necrotic bodies; also recorded: not toxic
